From patent US20260258084A1, “New Peptides as Selective IL-23 Receptor Antagonists” (Sanofi, priority 2022, published 2026)
Starred links: 1 amine or outer side, 2 acyl side, 3 side chain; linkers in the order of their positions; H or OH if unused. Positions of bridges follow the written chain, without caps; N, C: chain ends. Non-standard residues stand in square brackets, D forms with d. No end group written: not given here. Yde = (2S)-2-amino-3-[4-[2-(dimethylamino)ethoxy]phenyl]propanoic acid, CN(C)CCOc1ccc(C[C@H](N[*:1])C(=O)[*:2])cc1; Trp(7-Me) = Cc1cccc2c(C[C@H](N)C(=O)O)c[nH]c12; 2Nal = N[C@@H](Cc1ccc2ccccc2c1)C(=O)O; εLys = N[C@@H](CCCCN[*:1])C(=O)[*:2]; 3Pal = N[C@@H](Cc1cccnc1)C(=O)O; Dad = desamino-aspartamic acid; Lys(Me) = CNCCCC[C@H](N)C(=O)O; αMeL = CC(C)C[C@](C)(N)C(=O)O; NMeC = CN[C@@H](CS)C(=O)O; Thp = NC1(C(=O)O)CCOCC1; Aib = CC(C)(N)C(=O)O; Ava = NCCCCC(=O)O; Sar = CNCC(=O)O

T1: IL-23 receptor on the surface of HEK-Blue IL-23 cells (UniProt Q5VWK5 24-629, limits assumed)
T1 sequence (looked up): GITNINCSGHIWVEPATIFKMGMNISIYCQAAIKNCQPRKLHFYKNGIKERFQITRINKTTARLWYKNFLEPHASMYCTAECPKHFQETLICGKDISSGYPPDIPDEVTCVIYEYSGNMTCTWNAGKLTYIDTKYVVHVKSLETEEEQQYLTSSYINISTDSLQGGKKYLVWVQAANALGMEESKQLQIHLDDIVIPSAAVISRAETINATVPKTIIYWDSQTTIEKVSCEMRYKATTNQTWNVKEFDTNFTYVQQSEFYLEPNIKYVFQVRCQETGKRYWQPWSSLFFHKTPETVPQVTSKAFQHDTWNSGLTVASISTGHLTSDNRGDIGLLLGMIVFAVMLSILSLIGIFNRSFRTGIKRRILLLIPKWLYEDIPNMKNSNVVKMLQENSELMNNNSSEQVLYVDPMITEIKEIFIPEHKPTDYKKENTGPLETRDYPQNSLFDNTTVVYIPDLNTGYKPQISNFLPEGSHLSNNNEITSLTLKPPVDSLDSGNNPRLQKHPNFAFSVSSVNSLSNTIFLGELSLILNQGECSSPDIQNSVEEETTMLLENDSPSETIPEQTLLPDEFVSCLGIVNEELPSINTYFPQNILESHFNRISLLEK


Biological target: T1, IL-23 receptor on the surface of …
Assay: cell-based or functional assay

| Binder | pSTAT3 (nM) |
| --- | --- |
| [Dad]CNT[Trp(7-Me)]QC[Yde][2Nal][Aib]KN[3Pal]K-NH2 (lactam (positions not given here); disulfide 2-7; not fully specified (residue 14, bridges); printed as Dad(§1)-C(@2)-N-T-Wim-Q-C(@2)-Yde-Nal-Aib-K(§1)-N-Pal-K[Sema]-NH2) [Compound of SEQ ID NO: 71] | 2.35 nM |
| [Dad][NMeC]K[Trp(7-Me)]K(Ac)C[Yde][2Nal][Thp][Lys(Me)]N[3Pal][Sar]-NH2 (lactam 1-10; disulfide 2-6; not fully specified (residue 3); printed as Dad(§1)-Nmc(§3)(@2)-K[aAc](@3)-Wim-K[Ac]-C(@2)-Yde-Nal-Thp-Kme(§1)-N-Pal-Sar-NH2; also: Nmc2 carbonyl joined by amide bond to epsilon-NH2 of Lys3 (branched isopeptide), Lys3 alpha-NH2 acetylated) [Compound of SEQ ID NO: 74] | 0.12 nM |
| [Dad][NMeC][εLys](Ac)[Trp(7-Me)]LC[Yde][2Nal][αMeL][Lys(Me)]N[3Pal][Sar]-NH2 (lactam (positions not given here); disulfide 2-6; not fully specified (bridges); printed as Dad(§1)-Nmc(§3)(@2)-K[aAc](@3)-Wim-L-C(@2)-Yde-Nal-Mle-Kme(§1)-N-Pal-Sar-NH2; also: Nmc2 carboxyl joined to epsilon-NH2 of Lys3 (isopeptide bond), Lys3 alpha-N acetylated) [Compound of SEQ ID NO: 69] | 3.07 nM |
| [Dad]CK[Trp(7-Me)]K(Ac)C[Yde][2Nal][Aib]KN[3Pal][Sar]-NH2 (lactam (positions not given here); disulfide 2-6; not fully specified (residue 3, bridges); printed as Dad(§1)-C(§3)(@2)-K[aAc](@3)-Wim-K[Ac]-C(@2)-Yde-Nal-Aib-K(§1)-N-Pal-Sar-NH2; also: K[aAc]: Cys2 bonded to epsilon-NH2 of acetylated Lys3, acetyl presumably on alpha-amine) [Compound of SEQ ID NO: 104] | 0.1 nM |
| XXKXLCXXXXAXX (Dad(§1)-Nmc(§3)(@2)-K[aAc](@3)-Wim-L-C(@2)-Yde-Nal-Mie-Kme(§1)-A-Pal-Sar-NH2) [Compound of SEQ ID NO: 70] | 3.94 nM |
| [Ava]C[εLys](Ac)[Trp(7-Me)]K(Ac)C[Yde][2Nal][αMeL]EN[3Pal][Sar]-NH2 (lactam N-10; disulfide 2-6; also: Cys2 carboxyl joined to epsilon-NH2 of Lys3 (isopeptide bond), Lys3 alpha-N acetylated) [Compound of SEQ ID NO: 73] | 0.1 nM |
| [Ava]C[εLys](Ac)[Trp(7-Me)]K(Ac)C[Yde][2Nal][Aib]EN[3Pal][Sar]-NH2 (lactam N-10; disulfide 2-6; also: Cys2 carboxyl joined to epsilon-NH2 of Lys3 (isopeptide bond), Lys3 alpha-N acetylated) [Compound of SEQ ID NO: 72] | 0.12 nM |
| [Dad]CNT[Trp(7-Me)]K(Ac)C[Yde][2Nal][Thp]KN[3Pal][Sar]-NH2 (lactam (positions not given here); disulfide 2-7; not fully specified (bridges); printed as Dad(§1)-C(@2)-N-T-Wim-K[Ac]-C(@2)-Yde-Nal-Thp-K(§1)-N-Pal-Sar-NH2) [Compound of SEQ ID NO: 102] | 0.09 nM |
| [Dad]CNT[Trp(7-Me)]K(Ac)C[Yde][2Nal][αMeL]KN[3Pal][Sar]-NH2 (lactam (positions not given here); disulfide 2-7; not fully specified (bridges); printed as Dad(§1)-C(@2)-N-T-Wim-K[Ac]-C(@2)-Yde-Nal-Mle-K(§1)-N-Pal-Sar-NH2) [Compound of SEQ ID NO: 103] | 0.11 nM |
